We go through 1 molecule from article PMC11077089, “Molecular basis of A. thaliana KEOPS complex in biosynthesizing tRNA t6A”.

For data set [1], the target named is T1, KAE1;BUD32 K55E;CGI121;PCC1 (Arabidopsis thaliana;Arabidopsis …, UniProt O49653;Q94K14;Q6NMZ4;Q8GWD7 1-353;1-226;1-172;1-96, |K55E||).
T1 sequence 1: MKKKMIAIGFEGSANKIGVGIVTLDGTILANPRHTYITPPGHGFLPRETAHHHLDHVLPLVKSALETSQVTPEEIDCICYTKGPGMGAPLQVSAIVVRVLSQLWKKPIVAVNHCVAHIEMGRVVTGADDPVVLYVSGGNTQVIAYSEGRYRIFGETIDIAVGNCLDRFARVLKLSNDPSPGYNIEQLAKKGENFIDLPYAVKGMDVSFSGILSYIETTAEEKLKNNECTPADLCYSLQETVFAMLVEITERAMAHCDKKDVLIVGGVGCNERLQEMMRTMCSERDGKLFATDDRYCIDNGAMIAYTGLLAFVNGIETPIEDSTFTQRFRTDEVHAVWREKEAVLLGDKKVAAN
T1 sequence 2: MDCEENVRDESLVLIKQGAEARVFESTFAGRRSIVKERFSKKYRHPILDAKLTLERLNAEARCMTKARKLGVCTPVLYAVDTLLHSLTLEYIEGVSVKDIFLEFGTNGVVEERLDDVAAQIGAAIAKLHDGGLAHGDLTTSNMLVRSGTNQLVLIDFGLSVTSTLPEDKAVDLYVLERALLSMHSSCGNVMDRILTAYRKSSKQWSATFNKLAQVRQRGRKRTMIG
T1 sequence 3: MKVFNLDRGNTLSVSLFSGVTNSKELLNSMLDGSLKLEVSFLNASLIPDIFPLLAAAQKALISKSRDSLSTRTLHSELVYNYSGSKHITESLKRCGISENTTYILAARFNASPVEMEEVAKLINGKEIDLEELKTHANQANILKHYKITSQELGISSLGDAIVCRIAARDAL
T1 sequence 4: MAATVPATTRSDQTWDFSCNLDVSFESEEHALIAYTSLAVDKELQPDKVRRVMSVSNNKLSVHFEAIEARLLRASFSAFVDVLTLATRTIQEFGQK
The data set is described as follows: MST; MST: 20 mM PBS pH 7.5, 300 mM NaCl, 0.05% Tween 20, 25 C, 50 nM RNA; EMSA: 20 mM Tris-HCl pH 7.5, 300 mM NaCl, 5 mM b-mercaptoethanol, 20% glycerol, agarose gel in Tris-glycine pH 8.0 (8.5 for FAM-RNA), 4 C. Conditions: protein: recombinant;recombinant;recombinant;recombinant; tags: none (6His on partner PCC1);;6His (C-term);6His (C-term); chain copies: 2;2;2;2; label: 5' 6-FAM; tRNA cloverleaf.

Data set [2] addresses T2, KAE1 A231G;BUD32;CGI121;PCC1 (Arabidopsis thaliana;Arabidopsis …, UniProt O49653;Q94K14;Q6NMZ4;Q8GWD7 1-353;1-226;1-172;1-96, A231G|||).
T2 sequence 1: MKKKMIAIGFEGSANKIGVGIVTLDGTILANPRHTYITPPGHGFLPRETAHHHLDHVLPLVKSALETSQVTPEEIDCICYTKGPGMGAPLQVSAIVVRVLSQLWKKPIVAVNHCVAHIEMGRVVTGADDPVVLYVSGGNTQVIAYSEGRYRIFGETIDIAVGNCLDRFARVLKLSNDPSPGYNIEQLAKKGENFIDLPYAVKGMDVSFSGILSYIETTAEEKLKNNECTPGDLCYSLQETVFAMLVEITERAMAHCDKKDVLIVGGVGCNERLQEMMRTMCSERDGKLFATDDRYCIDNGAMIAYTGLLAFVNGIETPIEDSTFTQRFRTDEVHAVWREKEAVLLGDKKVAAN
T2 sequence 2: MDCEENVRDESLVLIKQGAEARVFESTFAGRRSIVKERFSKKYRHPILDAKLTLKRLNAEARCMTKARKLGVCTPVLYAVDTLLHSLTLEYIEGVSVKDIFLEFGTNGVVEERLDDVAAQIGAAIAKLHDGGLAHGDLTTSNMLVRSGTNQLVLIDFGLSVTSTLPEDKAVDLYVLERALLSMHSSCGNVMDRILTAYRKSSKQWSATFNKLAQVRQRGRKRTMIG
T2 sequence 3: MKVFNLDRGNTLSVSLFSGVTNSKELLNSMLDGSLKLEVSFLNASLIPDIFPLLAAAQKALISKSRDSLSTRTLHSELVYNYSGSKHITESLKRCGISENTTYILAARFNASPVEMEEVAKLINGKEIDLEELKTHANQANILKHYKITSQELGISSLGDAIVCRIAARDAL
T2 sequence 4: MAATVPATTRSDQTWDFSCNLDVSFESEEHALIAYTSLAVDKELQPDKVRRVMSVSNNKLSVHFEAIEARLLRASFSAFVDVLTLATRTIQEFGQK
The experiment in a line: EMSA; 1:5 RNA:protein; MST: 20 mM PBS pH 7.5, 300 mM NaCl, 0.05% Tween 20, 25 C, 50 nM RNA; EMSA: 20 mM Tris-HCl pH 7.5, 300 mM NaCl, 5 mM b-mercaptoethanol, 20% glycerol, agarose gel in Tris-glycine pH 8.0 (8.5 for FAM-RNA), 4 C. Conditions: protein: recombinant;recombinant;recombinant;recombinant; tags: ;none (6His on partner CGI121);6His (C-term);6His (C-term); chain copies: 2;2;2;2; label: 5' 6-FAM; tRNA cloverleaf. For orientation: In EMSA bound probe runs differently from free probe, usually more slowly.

Data set [3] addresses T3, KAE1 D298R;BUD32;CGI121;PCC1 (Arabidopsis thaliana;Arabidopsis …, UniProt O49653;Q94K14;Q6NMZ4;Q8GWD7 1-353;1-226;1-172;1-96, D298R|||).
T3 sequence 1: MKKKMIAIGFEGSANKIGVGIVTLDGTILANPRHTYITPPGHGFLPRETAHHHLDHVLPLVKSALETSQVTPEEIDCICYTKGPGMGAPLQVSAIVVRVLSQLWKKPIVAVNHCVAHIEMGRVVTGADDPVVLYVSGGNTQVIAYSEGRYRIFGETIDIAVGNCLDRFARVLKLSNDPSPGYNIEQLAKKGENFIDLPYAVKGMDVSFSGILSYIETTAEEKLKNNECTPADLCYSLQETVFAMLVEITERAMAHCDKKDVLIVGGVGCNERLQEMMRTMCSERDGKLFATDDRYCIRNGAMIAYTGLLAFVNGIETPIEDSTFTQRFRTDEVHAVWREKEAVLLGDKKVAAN
T3 sequence 2: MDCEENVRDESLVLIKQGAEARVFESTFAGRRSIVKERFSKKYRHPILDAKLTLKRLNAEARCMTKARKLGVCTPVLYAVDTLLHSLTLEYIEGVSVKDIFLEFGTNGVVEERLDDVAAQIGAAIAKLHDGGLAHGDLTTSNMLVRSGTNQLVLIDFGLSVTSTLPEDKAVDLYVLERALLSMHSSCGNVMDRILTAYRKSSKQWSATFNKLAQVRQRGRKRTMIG
T3 sequence 3: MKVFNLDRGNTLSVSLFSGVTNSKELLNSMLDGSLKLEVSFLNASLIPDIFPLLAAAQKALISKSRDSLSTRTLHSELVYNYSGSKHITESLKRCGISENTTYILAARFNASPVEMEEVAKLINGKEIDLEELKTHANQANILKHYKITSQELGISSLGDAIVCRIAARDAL
T3 sequence 4: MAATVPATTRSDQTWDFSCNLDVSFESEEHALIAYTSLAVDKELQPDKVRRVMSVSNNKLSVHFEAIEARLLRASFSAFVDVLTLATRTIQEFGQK
The description is as above. Conditions: protein: recombinant;recombinant;recombinant;recombinant; tags: ;none (6His on partner CGI121);6His (C-term);6His (C-term); chain copies: 2;2;2;2; label: 5' 6-FAM; tRNA cloverleaf.

B1: 5'-6FAM-tRNAArgCCU (structured_RNA)
RNA: GCGCCUGUAGCUCAGUGGAUAGAGCGUCUGUUUCCUAAGCAGAAGGUCGUAGGUUCGACCCCUACCUGGCGCGCCA
As a reminder, the Kd is the constant that tells how readily two partners part at equilibrium. As for B1, the Kd in data set [1] was 104 ± 15.2 µM. In addition, the binding result in data set [2] and in data set [3] was “binds” each time.
